The target in one assay is T1, hαvβ1 (Homo sapiens, UniProt P05556+P06756).
T1 construct: expressed in transfected cells
The experiment in a line: Integrin cell-based ELISA (CELISA) binding, CHOK1-human αvβ1 cells. The note with it: FIG. 3C. On the procedure:
(§1) Integrin cell-based ELISA (CELISA) assay. Cell binding EC50 data for antibodies were obtained for CHOK1 parental cells and CHOK1 cells expressing human or mouse αvβ1, αvβ6, and αvβ1 integrins by cell-based ELISA. Three days prior to the assay cells were seeded at 10,000 cells per well in 100 μL/well of media in Falcon 96-well Flat-Bottom Tissue Culture Plates (REF 353916), resulting in an even cell monolayer in each well on the day of the assay. On the day of the assay, media was removed from the cells and a fivefold titration of primary antibodies was added at concentrations ranging from 0 to 200 nM in TBSF+MnCl2 buffer (25 mM Tris, 0.15 M NaCl, 0.1% BSA, 0.5 mM MnCl2, pH 7.5). Cells incubated with primary antibody solution for 1 hour at room temperature. Primary antibody was removed and plates were washed twice with 150 μL/well of 1×DPBS+Tween 20 (TEKnova Cat #β0297, diluted to 1× in distilled water GIBCO #15230-147), before adding 50 μL/well of a 1:5000 dilution of HRP-conjugated goat anti-mouse IgG (Southern Biotech, #1030-05) in TBSF+MnCl2. After 30 minutes of incubation at room temperature, secondary antibody was removed, and cells were washed twice with 150 μL/well of 1×DPBS+Tween 20. […] Absorbance was read on a TECAN plate reader at 450 nm, with a 620 nm reference wavelength.

Assay [1] concerns IPF patient lung fibroblasts. Put plainly: αSMA imaging, TGFβ-induced αSMA expression. The note with it: TGFβ 5 ng/mL, 48 hours, read-out: IC50 of αSMA expression. The class given is cell-based, human. On the procedure: αSMA imaging. Primary cells (passage 3-5) were grown on Cell carrier Ultra, collagen Type 1 coated 96-well plates (Perkin Elmer, #6055700) at a density of 25,000 cells/well. Once the cells adhere, they were starved in serum free media for 24 hours followed by addition of treatments, i.e., 5 ng/mL TGFβ (Biolegend #580702)±inhibitors. Cells were pre-treated with inhibitors for 30 minutes prior to the addition of TGFβ stimulation. 48 hours post treatment, the cells were fixed in 4% methanol free paraformaldehyde (ThermoFisher Scientific #28908) for 20 minutes at room temperature and incubated with anti-alpha smooth muscle Actin antibody (Abcam #ab7817) at 1:4000 overnight at 4° C. Following primary antibody incubation, cells were incubated with Goat anti-mouse secondary antibody (ThermoFisher Scientific #A32723) at 1:500 and Hoechst (ThermoFisher Scientific #62249) at 1:1000 for one hour at RT. The fixed and stained cells were images for immunofluorescence on Perkin Elmer's Opera Phenix high content Imager.

Another assay concerns the target T2, hαvβ6 (Homo sapiens, UniProt P06756+P18564).
T2 construct: expressed in transfected cells
The experiment in a line: Integrin cell-based ELISA (CELISA) binding, CHOK1-human αvβ6 cells. The conditions noted are these: FIG. 3C. The method, then:
as §1

The next assay has as its target T3, mouse αvβ8 (Mus musculus, UniProt P43406+Q0VBD0).
T3 construct: expressed in transfected cells
Put plainly: Latent TGFβ activation assay, TMLC / CHOK1-integrin co-culture (PAI-1 luciferase). The class given is cell-based. The note with it: FIG. 5B. On the procedure:
(§2) Latent TGFβ activation assay. Transfected mink lung epithelial cell (TMLC) cell line containing the TGFβ responsive PAI-1 promoter driving luciferase expression (Mazzieri et al, Methods Mol. Biol. 142, 13-27 (2000)) and the CHO-K1 human and mouse αvβ×integrin cell lines were grown under optimized growth conditions to 90% confluency. TMLC cells were trypsinized and plated at 25,000 cells/well in 50 μL in Costar clear bottom white walled plates. In a separate plate, 25 μL of serially diluted antibodies at 4×concentration were added to wells containing 25 μL of either 25,000 cells of human or mouse αvβ×cells. After a brief mixing, the 50 μL mixture was transferred to the TMLC cell plates for a total volume of 100 μL and incubated at 37° C. for 16 hours. 100 μL of ONE-Glo kit (#PRE6120) was added to each well and read after three to five minutes on the Envision plate reader.

For the next assay, the target named is T4, human αvβ8 (Homo sapiens, UniProt P06756+P26012).
T4 construct: expressed in transfected cells
The assay is described as above. The note with it: FIG. 5B. The class given is cell-based. On the procedure: as §2

A further assay deals with T5, mouse αvβ6 (Mus musculus, UniProt P43406+Q9Z0T9).
T5 construct: expressed in transfected cells
The description is as above. The class given is cell-based. The conditions noted are these: FIG. 5B. The method, then:
as §2

Another assay concerns the target T6, human αvβ1 (Homo sapiens, UniProt P05556+P06756).
T6 construct: expressed in transfected cells
Described as above. The class given is cell-based. The conditions noted are these: FIG. 5B. On the procedure:
as §2

In the next assay the target is T7, mouse αvβ1 (Mus musculus, UniProt P09055+P43406).
T7 construct: expressed in transfected cells
The description is as above. The class given is cell-based. The note with it: FIG. 5B. The method, then: as §2

A further assay addresses T8, human αvβ6 (Homo sapiens, UniProt P06756+P18564).
T8 construct: expressed in transfected cells
Described as above. The class given is cell-based. The conditions noted are these: FIG. 5B. The method, then: as §2

In the next assay the target is T9, mαvβ8 (Mus musculus, UniProt P43406+Q0VBD0).
T9 construct: The full extracellular domains for all α and β integrin subunits; (GGGS)3 linker (C); acidic coiled-coil with cysteine (C); GG-Avitag (C); hexa-histidine tag (C); basic coiled-coil with cysteine (C); made in house; host or cells: Expi293 cells
T9 sequence (P43406 31-988 limits assumed): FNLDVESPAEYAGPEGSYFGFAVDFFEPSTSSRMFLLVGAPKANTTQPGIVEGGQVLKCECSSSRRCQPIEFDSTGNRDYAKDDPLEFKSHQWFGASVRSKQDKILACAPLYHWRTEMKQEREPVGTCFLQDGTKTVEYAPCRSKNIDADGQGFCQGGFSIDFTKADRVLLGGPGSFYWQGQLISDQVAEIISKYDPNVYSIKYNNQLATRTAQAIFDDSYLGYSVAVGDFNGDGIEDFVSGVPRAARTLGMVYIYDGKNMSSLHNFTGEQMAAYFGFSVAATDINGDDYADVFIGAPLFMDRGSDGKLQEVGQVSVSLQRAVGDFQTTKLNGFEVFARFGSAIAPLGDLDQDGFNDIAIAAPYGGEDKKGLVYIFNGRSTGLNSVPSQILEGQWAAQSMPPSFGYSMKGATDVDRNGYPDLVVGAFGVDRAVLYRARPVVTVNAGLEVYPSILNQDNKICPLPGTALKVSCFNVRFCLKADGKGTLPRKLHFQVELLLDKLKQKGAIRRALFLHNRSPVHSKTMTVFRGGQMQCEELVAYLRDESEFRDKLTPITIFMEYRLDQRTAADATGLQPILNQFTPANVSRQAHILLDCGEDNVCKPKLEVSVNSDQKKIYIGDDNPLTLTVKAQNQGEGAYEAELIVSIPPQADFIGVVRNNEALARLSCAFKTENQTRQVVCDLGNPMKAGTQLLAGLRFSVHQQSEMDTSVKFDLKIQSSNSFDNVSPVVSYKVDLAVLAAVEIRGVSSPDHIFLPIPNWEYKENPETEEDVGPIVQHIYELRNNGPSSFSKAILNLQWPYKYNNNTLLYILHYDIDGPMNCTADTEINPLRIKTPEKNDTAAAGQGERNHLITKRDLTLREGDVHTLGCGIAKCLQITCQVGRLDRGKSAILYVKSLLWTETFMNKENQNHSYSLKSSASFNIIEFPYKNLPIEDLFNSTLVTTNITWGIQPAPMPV
T9 sequence (Q0VBD0 22-681 limits assumed): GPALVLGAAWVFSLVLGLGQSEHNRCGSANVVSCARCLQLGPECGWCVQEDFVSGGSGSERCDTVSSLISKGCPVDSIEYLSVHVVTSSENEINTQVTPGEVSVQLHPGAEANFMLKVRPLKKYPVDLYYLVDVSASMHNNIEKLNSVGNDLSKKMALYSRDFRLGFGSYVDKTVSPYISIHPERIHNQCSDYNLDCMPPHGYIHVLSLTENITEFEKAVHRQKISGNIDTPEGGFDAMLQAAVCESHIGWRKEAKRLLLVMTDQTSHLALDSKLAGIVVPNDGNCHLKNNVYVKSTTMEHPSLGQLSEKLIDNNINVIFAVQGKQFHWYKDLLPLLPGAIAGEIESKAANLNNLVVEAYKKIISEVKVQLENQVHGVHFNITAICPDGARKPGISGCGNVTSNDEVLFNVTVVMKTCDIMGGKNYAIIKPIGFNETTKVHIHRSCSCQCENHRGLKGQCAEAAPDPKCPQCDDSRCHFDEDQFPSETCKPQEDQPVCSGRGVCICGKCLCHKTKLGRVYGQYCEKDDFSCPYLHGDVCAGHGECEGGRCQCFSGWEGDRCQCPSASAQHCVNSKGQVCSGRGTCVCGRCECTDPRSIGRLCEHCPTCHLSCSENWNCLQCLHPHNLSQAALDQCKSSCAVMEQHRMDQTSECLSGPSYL
Put plainly: Mouse AlphaLISA integrin-ligand blocking assay (LAP). The class given is biochemical. The note with it: Table 12; read-out: IC50 Mouse integrin AlphaLISA assays mαvβ8. The method, then:
(§3) Integrin AlphaLISA assay. In the AlphaLISA integrin assays, we used a HEPES based buffer (25 mM HEPES pH 7.4, 137 mM NaCl, 1 mM MgCl2, 1 mM MnCl2, 2 mM CaCl2, 2.7 mM KCl, and 0.05% Tween 20). Optimal assay conditions were determined with a titration of the reagents for signal noise ratio (S/N), linear range, etc. For the respective integrins, we used the final concentrations described in Table 9.
(§4) Briefly, the testing antibody (8 μL) was added as a 4×(of Final testing concentration) solution in the HEPES buffer described previously into a 384w AlphaPlate™ (Perkin Elmer #6005350). Then the integrin and ligand were added sequentially as 8×(4 μL each). Plates were sealed and incubated at room temperature for two hours. Then 4×acceptor bead solution ([…]) was added, and the plates were resealed and incubated at room temperature (RT) for one hour. Finally, 4×([…]) donor beads solution was added in a darkened room and incubated for 45 minutes at room temperature. Plates were read on the Envision (Perkin Elmer) in AlphaScreen™ mode within three hours of donor bead addition.

The target in another assay is T10, mαvβ6 (Mus musculus, UniProt P43406+Q9Z0T9).
T10 construct: The full extracellular domains for all α and β integrin subunits; (GGGS)3 linker (C); acidic coiled-coil with cysteine (C); GG-Avitag (C); hexa-histidine tag (C); basic coiled-coil with cysteine (C); made in house; host or cells: Expi293 cells
T10 sequence (P43406 31-988 limits assumed): as the sequence (P43406 31-988 limits assumed) above
T10 sequence (Q9Z0T9 22-708 limits assumed): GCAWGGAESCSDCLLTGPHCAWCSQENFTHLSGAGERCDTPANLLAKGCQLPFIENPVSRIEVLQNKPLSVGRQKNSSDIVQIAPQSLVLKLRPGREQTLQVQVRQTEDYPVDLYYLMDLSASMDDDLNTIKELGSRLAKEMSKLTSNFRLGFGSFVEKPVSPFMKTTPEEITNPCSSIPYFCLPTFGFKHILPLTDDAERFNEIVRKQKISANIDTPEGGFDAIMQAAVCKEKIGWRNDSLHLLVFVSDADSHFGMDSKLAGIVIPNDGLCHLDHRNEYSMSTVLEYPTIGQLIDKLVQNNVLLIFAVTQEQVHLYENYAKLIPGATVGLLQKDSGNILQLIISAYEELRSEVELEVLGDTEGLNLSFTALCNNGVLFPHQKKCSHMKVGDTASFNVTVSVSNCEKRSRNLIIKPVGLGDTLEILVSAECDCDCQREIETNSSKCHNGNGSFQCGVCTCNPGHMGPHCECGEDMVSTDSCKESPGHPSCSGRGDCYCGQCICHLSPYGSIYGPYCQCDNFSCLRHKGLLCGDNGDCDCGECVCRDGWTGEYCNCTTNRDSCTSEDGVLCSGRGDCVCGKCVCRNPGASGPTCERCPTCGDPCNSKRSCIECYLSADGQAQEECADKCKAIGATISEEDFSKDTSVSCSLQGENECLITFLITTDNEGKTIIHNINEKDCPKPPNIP
Described as above. The class given is biochemical. The conditions noted are these: Table 12; read-out: IC50 Mouse integrin AlphaLISA assays mαvβ6. On the procedure:
as §3, §4

For another assay, the target named is T11, mαvβ5 (Mus musculus, UniProt O70309+P43406).
T11 construct: The full extracellular domains for all α and β integrin subunits; (GGGS)3 linker (C); acidic coiled-coil with cysteine (C); GG-Avitag (C); hexa-histidine tag (C); basic coiled-coil with cysteine (C); made in house; host or cells: Expi293 cells
Put plainly: Mouse AlphaLISA integrin-ligand blocking assay (vitronectin). The class given is biochemical. The conditions noted are these: Table 12; read-out: IC50 Mouse integrin AlphaLISA assays mαvβ5. The method, then: as §3, §4

Another assay deals with T12, mαvβ3 (Mus musculus, UniProt O54890+P43406).
T12 construct: The full extracellular domains for all α and β integrin subunits; (GGGS)3 linker (C); acidic coiled-coil with cysteine (C); GG-Avitag (C); hexa-histidine tag (C); basic coiled-coil with cysteine (C); made in house; host or cells: Expi293 cells
T12 sequence (P43406 31-988 limits assumed): as the sequence (P43406 31-988 limits assumed) above
T12 sequence (O54890 26-717 limits assumed): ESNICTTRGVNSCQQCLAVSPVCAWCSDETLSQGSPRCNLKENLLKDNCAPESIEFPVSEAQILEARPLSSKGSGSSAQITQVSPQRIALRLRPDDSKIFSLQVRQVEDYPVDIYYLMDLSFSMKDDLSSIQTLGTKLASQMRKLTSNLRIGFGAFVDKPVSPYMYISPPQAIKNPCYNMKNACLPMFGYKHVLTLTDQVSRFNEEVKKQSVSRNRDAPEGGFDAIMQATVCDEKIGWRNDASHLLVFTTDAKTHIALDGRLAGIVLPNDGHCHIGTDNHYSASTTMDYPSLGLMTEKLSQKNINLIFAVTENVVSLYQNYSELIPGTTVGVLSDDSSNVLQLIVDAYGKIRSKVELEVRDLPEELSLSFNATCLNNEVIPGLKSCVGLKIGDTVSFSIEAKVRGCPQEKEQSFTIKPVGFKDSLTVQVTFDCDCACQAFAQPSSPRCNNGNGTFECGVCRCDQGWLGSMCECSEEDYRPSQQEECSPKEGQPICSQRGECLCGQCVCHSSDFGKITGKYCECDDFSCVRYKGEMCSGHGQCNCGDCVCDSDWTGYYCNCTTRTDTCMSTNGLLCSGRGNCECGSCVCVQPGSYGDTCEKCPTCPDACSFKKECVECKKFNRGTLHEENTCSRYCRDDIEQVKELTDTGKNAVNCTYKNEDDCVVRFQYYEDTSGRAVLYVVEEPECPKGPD
The description is as above. The note with it: Table 12; read-out: IC50 Mouse integrin AlphaLISA assays mαvβ3. The class given is biochemical. On the procedure: as §3, §4

A further assay addresses T13, mαvβ1 (Mus musculus, UniProt P09055+P43406).
T13 construct: The full extracellular domains for all α and β integrin subunits; (GGGS)3 linker (C); acidic coiled-coil with cysteine (C); GG-Avitag (C); hexa-histidine tag (C); basic coiled-coil with cysteine (C); made in house; host or cells: Expi293 cells
The experiment in a line: Mouse AlphaLISA integrin-ligand blocking assay (fibronectin). The note with it: Table 12; read-out: IC50 Mouse integrin AlphaLISA assays mαvβ1. The class given is biochemical. The method, then:
as §3, §4

A further assay deals with T14, mα5β1 (Mus musculus, UniProt P09055+P11688).
T14 construct: The full extracellular domains for all α and β integrin subunits; (GGGS)3 linker (C); acidic coiled-coil with cysteine (C); GG-Avitag (C); hexa-histidine tag (C); basic coiled-coil with cysteine (C); made in house; host or cells: Expi293 cells
T14 sequence (P11688 45-999 limits assumed): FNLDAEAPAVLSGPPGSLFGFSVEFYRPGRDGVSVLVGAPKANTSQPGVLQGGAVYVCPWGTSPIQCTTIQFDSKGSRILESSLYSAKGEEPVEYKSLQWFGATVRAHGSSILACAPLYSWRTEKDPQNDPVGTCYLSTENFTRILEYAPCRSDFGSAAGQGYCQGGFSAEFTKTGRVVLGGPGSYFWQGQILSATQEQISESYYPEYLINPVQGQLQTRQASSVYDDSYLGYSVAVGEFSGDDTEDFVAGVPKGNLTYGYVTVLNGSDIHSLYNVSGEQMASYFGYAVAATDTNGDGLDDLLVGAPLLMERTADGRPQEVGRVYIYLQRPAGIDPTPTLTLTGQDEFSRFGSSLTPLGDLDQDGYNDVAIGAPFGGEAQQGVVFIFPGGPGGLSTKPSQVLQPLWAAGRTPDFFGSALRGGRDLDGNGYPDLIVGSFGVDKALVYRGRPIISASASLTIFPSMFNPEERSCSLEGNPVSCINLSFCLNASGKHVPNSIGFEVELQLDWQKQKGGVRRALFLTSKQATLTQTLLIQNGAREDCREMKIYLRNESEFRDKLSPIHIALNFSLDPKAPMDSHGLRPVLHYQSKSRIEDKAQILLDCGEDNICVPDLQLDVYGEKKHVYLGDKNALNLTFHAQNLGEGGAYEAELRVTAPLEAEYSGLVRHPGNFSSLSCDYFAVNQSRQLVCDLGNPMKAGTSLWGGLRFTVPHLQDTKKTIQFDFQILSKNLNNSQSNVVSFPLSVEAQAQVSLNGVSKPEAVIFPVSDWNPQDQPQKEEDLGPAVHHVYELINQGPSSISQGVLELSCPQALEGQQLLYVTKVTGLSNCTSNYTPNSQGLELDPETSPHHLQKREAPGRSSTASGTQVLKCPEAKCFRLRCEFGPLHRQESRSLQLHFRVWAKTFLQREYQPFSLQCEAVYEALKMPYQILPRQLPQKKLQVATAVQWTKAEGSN
T14 sequence (P09055 21-728 limits assumed): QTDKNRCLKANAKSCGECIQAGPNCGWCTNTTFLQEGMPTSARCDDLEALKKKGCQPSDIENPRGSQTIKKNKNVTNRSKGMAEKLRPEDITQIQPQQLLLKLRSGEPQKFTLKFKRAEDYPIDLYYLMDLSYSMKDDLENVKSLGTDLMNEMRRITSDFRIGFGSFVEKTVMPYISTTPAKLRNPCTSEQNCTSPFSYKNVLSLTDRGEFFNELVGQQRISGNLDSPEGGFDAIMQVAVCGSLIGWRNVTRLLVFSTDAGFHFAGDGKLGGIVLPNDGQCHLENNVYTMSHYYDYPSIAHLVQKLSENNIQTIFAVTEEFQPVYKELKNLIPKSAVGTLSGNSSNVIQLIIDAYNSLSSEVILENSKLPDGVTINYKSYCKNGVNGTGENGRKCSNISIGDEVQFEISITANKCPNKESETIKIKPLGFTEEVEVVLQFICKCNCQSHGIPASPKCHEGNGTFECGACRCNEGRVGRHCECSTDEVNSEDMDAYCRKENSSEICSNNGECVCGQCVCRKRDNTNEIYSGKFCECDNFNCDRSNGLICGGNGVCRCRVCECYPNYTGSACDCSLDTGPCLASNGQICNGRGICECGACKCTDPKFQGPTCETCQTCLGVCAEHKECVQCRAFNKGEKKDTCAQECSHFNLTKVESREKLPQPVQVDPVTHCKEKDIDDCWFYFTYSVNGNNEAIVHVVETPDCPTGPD
The assay is described as above. The class given is biochemical. The conditions noted are these: Table 12; read-out: IC50 Mouse integrin AlphaLISA assays mα5β1. The method, then:
as §3, §4

The next assay concerns the target hα5β1 (Homo sapiens, UniProt P05556+P08648). Put plainly: Human AlphaLISA integrin-ligand blocking assay (fibronectin). The class given is biochemical. Further details: The full extracellular domains for all α and β integrin subunits; (GGGS)3 linker (C); acidic coiled-coil with cysteine (C); GG-Avitag (C); hexa-histidine tag (C); basic coiled-coil with cysteine (C); made in house; host or cells: Expi293 cells. The conditions noted are these: Table 11; read-out: IC50 Human integrin AlphaLISA assays hα5β1. The method, then:
as §3, §4

T13 sequence (P43406 31-988 limits assumed): as the sequence (P43406 31-988 limits assumed) above
T13 sequence (P09055 21-728 limits assumed): as the sequence (P09055 21-728 limits assumed) above

B1: mAb-24: control antibody abituzumab; 17E6, a therapeutic pan-αv integrin antibody (antibody, chains of the INN, looked up, V domains shown)
VH: QVQLQQSGGELAKPGASVKVSCKASGYTFSSFWMHWVRQAPGQGLEWIGYINPRSGYTEYNEIFRDKATMTTDTSTSTAYMELSSLRSEDTAVYYCASFLGRGAMDYWGQGTTVTVSS
VL: DIQMTQSPSSLSASVGDRVTITCRASQDISNYLAWYQQKPGKAPKLLIYYTSKIHSGVPSRFSGSGSGTDYTFTISSLQPEDIATYYCQQGNTFPYTFGQGTKVEIK
As to B1, the “binding to human αvβ1 integrin in CELISA” value with hαvβ1 was “preferentially bound”. Further, the IC50 in assay [1] was more than 1 µM; with mαvβ8, more than 0.25 µM; with mαvβ6, more than 0.25 µM; with mαvβ5 it was more than 0.25 µM; in the assay with mαvβ3 it was more than 0.25 µM; with mαvβ1 it was more than 0.25 µM. The IC50 with mα5β1 and in the assay with hα5β1 was more than 0.25 µM each time. The “binding to human αvβ6 integrin in CELISA” value with hαvβ6 is recorded as “preferentially bound”. Also, the “inhibition of latent TGFβ activation, mouse αvβ8 co-culture” value in the assay with mouse αvβ8 is recorded as “minimal activity”. In addition, in the assay with human αvβ8, the “inhibition of latent TGFβ activation, human αvβ8 co-culture” value is on record as “potent”. Moreover, in the assay with mouse αvβ6, the “inhibition of latent TGFβ activation, mouse αvβ6 co-culture” value was “minimal activity”. In addition, the “inhibition of latent TGFβ activation, human αvβ1 co-culture” value in the assay with human αvβ1 is recorded as “potent”. In addition, in the assay with mouse αvβ1, the “inhibition of latent TGFβ activation, mouse αvβ1 co-culture” value is “minimal activity”. In addition, in the assay with human αvβ6, the “inhibition of latent TGFβ activation, human αvβ6 co-culture” value is “potent”.
